The record followed here is patent JP2011115175A.

The target in assay [1] is CD28Ig (human) (UniProt P10747). The assay can be described thus: ELISA on CD28Ig-coated plates, detected with anti-human kappa conjugate. For orientation: In an ELISA, binding on a coated surface is turned into a signal by an enzyme label.
The target in assay [2] is ニワトリリゾチーム (chicken lysozyme) (chicken) (UniProt P00698). The assay can be described thus: fluorescence quench titration; 200 nM Fab titrated with lysozyme in solution.
For assay [3] the target is unchanged. Kind of assay: legend of Figure 7 (antigen binding graph, fluorescence quench titration).
Assay [4] deals with ヒトグルタミン酸デカルボキシラーゼ65kDaアイソフォーム (human glutamic acid decarboxylase, GAD65) (human) (UniProt Q05329). The assay can be described thus: immunoprecipitation of 35S-labelled GAD65 with Protein G-Sepharose; midpoint read by eye.
Assay [5] addresses CD28Ig (human) (UniProt P10747). The assay can be described thus: legend of Figure 11 (antigen binding graph, ELISA).

Sequence of UniProt P00698 (P00698 19-147 limits assumed): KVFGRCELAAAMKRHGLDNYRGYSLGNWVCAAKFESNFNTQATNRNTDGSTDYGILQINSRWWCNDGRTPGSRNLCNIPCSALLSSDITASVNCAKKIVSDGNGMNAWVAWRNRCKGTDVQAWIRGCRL
Sequence of UniProt Q05329 (Q05329 whole entry): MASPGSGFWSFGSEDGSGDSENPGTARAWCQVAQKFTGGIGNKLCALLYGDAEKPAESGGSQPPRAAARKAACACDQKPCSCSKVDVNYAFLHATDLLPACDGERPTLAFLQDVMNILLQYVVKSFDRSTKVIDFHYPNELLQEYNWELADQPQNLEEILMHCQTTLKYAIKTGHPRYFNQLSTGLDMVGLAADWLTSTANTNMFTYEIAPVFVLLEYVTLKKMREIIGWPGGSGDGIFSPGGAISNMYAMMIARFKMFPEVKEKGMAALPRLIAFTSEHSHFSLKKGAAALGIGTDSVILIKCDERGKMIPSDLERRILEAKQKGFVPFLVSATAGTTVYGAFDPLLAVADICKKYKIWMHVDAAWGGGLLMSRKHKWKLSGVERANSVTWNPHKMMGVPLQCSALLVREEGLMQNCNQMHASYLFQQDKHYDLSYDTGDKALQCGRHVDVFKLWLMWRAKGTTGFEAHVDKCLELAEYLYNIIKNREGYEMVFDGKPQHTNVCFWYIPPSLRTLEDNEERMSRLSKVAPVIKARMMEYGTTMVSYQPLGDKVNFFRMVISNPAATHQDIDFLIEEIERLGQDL

In general, EC50 refers to the concentration that produces a half-maximal response. Regarding “マウス9.3 Fab (Fab of mouse 9.3 variable domains and human constant domains)”, the EC50 with CD28Ig (human) [1] is 20 nM. This counts as double-digit nanomolar.
Usually Kd stands for the equilibrium constant for the complex coming apart. A high value points to a looser complex. Turning to “ヒト化D1.3 Fab (humanized D1.3 Fab, anti-chicken lysozyme)”, the Kd in assay [2] stood at 23 nM. In assay [3], this molecule had a Ka of more than 1e+08 M⁻¹.

B1: マウスNGAD65 Fabフラグメント (mouse NGAD65 variable domains and constant domains) (Fab, from another filing, V domains shown)
VH: QVQLQQPGAELVKPGASVKMSCKASGYRFSSYNMHWVKQTPGQGLEWIGAIYPRSGDTSYNQKFKGKATLTADKSSSTAYMQLGSLTSEDSAVYYCVRSYDYDAPFAFWGQGTLVTVSA
VL: VLTQTPLSLPVSLGDQASISCRSSQSLEHNNGNTYLNWYLQKPGQSPQLLIYRVSNRFSGGLDRFSGSGSGTDFTLKISRVEAEDLGVYFCLQVTHVPFTFGSGTKLEIKR
The molecule B1 returned an EC50 in assay [4] of 0.36 pM.

B2: ヒト化抗ヒトCD28(Hu9.3)Fabフラグメント (Fab, from another filing, V domains shown)
VH: EVQLVQSGGGLVQPGGSLRLSCAGSGFTFSDYGVHWVRQAPGKGLEWVSAIWAGGGTNYASSVMGRFTISRDNAKNSLYLQMNSLRAEDMAVYYCARDKGYSYYYSMDYWGQGTLVTVSS
VL: DIVMTQSPDSLAVSLGERATINCRASESVEYYVTSLMAWYQQKPGQPPKLLIYAASNVESGVPDRFSGSGSGTNFSLTISSLQAEDVAVYYCQQSRKVPYTFGQGTKLEIKR
In turn, B2 gave a Ka in the assay with CD28Ig (human) [5] of more than 1e+06 M⁻¹. Further, the EC50 with CD28Ig (human) [1] was 630 nM.
